Results taken from patent publication US20130022601A1 (Hoffmann-La Roche, published 2013).
One block for each binder: values may come before it.

Tests used:
Her3 (ErbB3) receptor = target: T1, Her3 (ErbB3) receptor (human, UniProt P21860 20-1342); test: flow cytometry on A431 cells, PE-coupled anti-human Fc secondary antibody
T1 construct: whole, on cells; Endogenous receptor on human cancer cell lines
Procedure: (§1) A431 were detached and counted. 1.5×10e5 cells were seeded per well of a conical 96-well plate. Cells were spun down (1500 rpm, 4° C., 5 min) and incubated for 30 min on ice in 50 μL of a dilution series of the respective bispecific antibody in PBS with 2% FCS (fetal calf serum). Cells were again spun down and washed once with 200 μL PBS containing 2% FCS followed by a second incubation of 30 min with a phycoerythrin-coupled antibody directed against human Fc which was diluted in PBS containing 2% FCS (Jackson Immunoresearch, 109116098). Cells were spun down washed twice with 200 μL PBS containing 2% FCS, resuspended in BD CellFix solution (BD Biosciences) and incubated for at least 10 min on ice. Mean fluorescence intensity (mfi) of the cells was determined by flow cytometry (FACS Canto, BD). Mfi was determined at least in duplicates of two independent stainings Flow cytometry spectra were further processed using the FlowJo software (TreeStar). Half-maximal binding was determined using XLFit 4.0 (IDBS) and the dose response one site model 205.
(§2) The binding properties of the bispecific antibodies to their respective receptor on the cell surface was analyzed on A431 cancer cells in a flow cytometry based assay. Cells were incubated with the mono- or bispecific primary antibodies and binding of these antibodies to their cognate receptors was detected with a secondary antibody coupled to a fluorophore binding specifically to the Fc of the primary antibody. The mean fluorescence intensity of a dilution series of the primary antibodies was plotted against the concentration of the antibody to obtain a sigmoidal binding curve. Cell surface expression of c-Met and Her3 was validated by incubation with the bivalent 5D5 and Her3 clone 29 antibody only. The Her3/c-Met_KHSS antibody readily binds to the cell surface of A431.

c-Met receptor = target: T2, c-Met receptor (human, UniProt P08581 25-1390); test: as above
T2 construct: whole, on cells; Endogenous receptor on human cells
Procedure: as §1, §2

T1 sequence (P21860 20-1342): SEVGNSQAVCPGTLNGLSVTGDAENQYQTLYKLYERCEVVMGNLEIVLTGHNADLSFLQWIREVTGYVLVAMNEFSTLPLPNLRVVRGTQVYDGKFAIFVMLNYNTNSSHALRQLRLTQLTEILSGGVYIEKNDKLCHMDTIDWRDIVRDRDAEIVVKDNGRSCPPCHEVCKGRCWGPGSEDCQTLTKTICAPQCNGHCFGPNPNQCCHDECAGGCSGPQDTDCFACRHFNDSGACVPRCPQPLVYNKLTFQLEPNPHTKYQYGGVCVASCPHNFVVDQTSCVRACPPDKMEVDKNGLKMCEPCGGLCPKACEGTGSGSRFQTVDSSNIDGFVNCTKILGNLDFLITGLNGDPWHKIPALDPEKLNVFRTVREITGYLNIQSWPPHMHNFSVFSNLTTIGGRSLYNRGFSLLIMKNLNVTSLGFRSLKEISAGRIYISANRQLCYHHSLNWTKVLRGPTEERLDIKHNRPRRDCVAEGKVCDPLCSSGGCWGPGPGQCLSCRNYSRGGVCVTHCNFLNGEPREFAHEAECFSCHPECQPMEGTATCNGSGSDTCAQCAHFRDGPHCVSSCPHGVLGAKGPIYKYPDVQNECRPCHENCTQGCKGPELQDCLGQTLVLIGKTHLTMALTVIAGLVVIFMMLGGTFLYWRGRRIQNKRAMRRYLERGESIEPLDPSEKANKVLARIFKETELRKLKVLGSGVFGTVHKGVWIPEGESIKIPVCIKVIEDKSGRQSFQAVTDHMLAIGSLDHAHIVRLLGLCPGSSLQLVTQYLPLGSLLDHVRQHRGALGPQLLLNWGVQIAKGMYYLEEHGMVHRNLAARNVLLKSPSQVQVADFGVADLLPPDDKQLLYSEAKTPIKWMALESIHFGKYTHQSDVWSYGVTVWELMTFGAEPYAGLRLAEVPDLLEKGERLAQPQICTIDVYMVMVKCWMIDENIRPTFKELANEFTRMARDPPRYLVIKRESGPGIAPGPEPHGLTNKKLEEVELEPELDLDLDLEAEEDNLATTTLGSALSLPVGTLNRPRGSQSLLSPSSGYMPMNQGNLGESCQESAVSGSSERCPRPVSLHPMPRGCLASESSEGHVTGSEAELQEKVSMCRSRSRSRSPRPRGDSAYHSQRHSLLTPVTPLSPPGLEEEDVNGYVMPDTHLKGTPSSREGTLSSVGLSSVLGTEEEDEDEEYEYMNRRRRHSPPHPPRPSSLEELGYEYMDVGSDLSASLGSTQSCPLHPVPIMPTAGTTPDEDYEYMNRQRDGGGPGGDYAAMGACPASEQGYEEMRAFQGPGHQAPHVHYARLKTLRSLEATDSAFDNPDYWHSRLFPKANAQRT
T2 sequence (P08581 25-1390): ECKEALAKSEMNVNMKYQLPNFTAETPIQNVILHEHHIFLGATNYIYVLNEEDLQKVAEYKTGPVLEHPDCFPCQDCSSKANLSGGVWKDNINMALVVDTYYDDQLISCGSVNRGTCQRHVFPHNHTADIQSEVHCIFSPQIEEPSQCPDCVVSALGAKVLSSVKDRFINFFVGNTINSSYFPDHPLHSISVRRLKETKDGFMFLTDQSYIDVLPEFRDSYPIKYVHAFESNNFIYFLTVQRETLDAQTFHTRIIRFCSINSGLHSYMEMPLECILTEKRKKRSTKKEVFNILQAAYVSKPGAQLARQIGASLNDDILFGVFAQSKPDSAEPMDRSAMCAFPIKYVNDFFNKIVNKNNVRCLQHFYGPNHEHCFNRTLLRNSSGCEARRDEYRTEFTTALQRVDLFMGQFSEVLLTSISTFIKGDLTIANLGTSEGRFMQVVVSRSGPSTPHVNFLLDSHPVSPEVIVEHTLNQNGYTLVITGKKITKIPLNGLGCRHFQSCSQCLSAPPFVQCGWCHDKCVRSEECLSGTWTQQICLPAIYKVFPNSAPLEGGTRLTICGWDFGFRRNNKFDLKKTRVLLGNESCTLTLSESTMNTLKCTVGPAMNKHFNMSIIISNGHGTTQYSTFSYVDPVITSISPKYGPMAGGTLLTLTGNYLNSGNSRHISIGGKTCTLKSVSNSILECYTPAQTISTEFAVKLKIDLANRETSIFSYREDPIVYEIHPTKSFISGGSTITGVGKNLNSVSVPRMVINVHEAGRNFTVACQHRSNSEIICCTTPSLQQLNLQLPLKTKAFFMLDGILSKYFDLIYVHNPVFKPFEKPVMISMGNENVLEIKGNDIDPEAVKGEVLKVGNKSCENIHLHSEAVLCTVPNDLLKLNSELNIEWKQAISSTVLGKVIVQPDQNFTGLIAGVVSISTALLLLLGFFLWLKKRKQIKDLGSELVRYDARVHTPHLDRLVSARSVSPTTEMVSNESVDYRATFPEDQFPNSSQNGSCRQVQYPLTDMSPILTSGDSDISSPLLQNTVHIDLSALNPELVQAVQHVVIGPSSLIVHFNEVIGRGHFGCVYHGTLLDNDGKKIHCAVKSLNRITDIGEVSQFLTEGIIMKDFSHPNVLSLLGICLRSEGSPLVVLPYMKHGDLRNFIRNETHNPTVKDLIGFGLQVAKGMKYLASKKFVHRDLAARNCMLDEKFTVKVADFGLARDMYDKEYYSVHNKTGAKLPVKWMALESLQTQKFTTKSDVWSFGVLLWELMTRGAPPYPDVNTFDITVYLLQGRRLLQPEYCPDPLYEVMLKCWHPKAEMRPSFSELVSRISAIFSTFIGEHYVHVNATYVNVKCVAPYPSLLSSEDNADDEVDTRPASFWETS

binding result (Her3 (ErbB3) receptor): binds
B1: <ErbB3> HER3 clone 29 antibody (antibody, human IgG1, kappa, V domains shown)
VH: DVQLQESGPGLVKPSQSLSLTCSVTGYSITSAYYWNWIRQFPGNKLEWMGYISYGGSNSYAPSLKNRFSITRDTSKNQFFLKLNSVTTEDTATYYCARESDYAYFDYWGQGTTLTVSS
VL: DIQMTQTTSSLSASLGDRVTISCRARQDISNYLNWYQRKPDGTVKLLIYYTSRLHSGVPSRFSGSGSGTDYSLTISNLEQEDIATYFCQQGNTFPWTFGGGTKLEIKR
notes: Bivalent parental antibody (chimeric), with unmodified heavy and light chains; also called parental Her3 clone29

binding result (Her3 (ErbB3) receptor): binds
B2: trivalent, bispecific <ErbB3-c-Met> antibody Her3/Met_KHSS (bispecific antibody, human IgG1, kappa)
heavy 1: not shown
heavy 2: not shown
light: DIQMTQTTSSLSASLGDRVTISCRARQDISNYLNWYQRKPDGTVKLLIYYTSRLHSGVPSRFSGSGSGTDYSLTISNLEQEDIATYFCQQGNTFPWTFGGGTKLEIKRTVAAPSVFIFPPSDEQLKSGTASVVCLLNNFYPREAKVQWKVDNALQSGNSQESVTEQDSKDSTYSLSSTLTLSKADYEKHKVYACEVTHQGLSSPVTKSFNRGEC
notes: Full length Her3 clone 29 (chimeric) antibody with knobs-into-holes and CH3 disulfide mutations

binding result (c-Met receptor): binds
B3: <c-Met> Mab 5D5 (antibody, human IgG1, kappa, V domains shown)
VH: EVQLVESGGGLVQPGGSLRLSCAASGYTFTSYWLHWVRQAPGKGLEWVGMIDPSNSDTRFNPNFKDRFTISADTSKNTAYLQMNSLRAEDTAVYYCATYRSYVTPLDYWGQGTLVTVSS
VL: DIQMTQSPSSLSASVGDRVTITCKSSQSLLYTSSQKNYLAWYQQKPGKAPKLLIYWASTRESGVPSRFSGSGSGTDFTLTISSLQPEDFATYYCQQYYAYPWTFGQGTKVEIKR
notes: Bivalent 5D5 antibody (humanized), with unmodified heavy and light chains; also called bivalent 5D5; c-Met 5D5
